Broadly, the stoichiometry N is a count of units in the complex or per binding partner.

In the assay the target is SCO3201 (amino acids 21–216), TetR/AcrR-like regulator from Streptomyces coelicolor (Streptomyces coelicolor) (UniProt Q9KYU4). The assay can be described thus: SAXS.

The substance “SCO3201 (amino acids 21–216), TetR/AcrR-like regulator from Streptomyces coelicolor (from UniProt Q9KYU4 21-216) (domain or fragment)” registered a stoichiometry N of 2.

These data come from article PMC10087246.
